Data taken from article PMC7042059 (FEBS letters, 2019).
Values joined by “and” are separate entries in the source; they are usually repeats but may differ in a detail not shown here. Equal entries are not always repeated.

Molecular target: the molecule itself
Experiment: SEC

B1: PKM2 R399E (enzyme)
chain: not shown
stoichiometry N: 4 and 2
